For assay [1], the target named is GST-Src SH2 [GST: P08515]. Kind of assay: fluorescence polarization, GST-Src SH2 titrated on 10 nM FITC-pTyrEEI, one-site binding model. On the technique in general: In fluorescence polarisation assays a small probe gives low polarisation when free and higher when bound to something large.
Assay [2] has as its target GST-Src SH2 [GST: P08515]. Kind of assay: fluorescence polarization competition; competitor FITC-pTyrEEI on GST-Src SH2.
In assay [3] the target is GST-Src SH2 [GST: P08515]. The assay can be described thus: fluorescence polarization competition, EC50 of pnY peptide against that of pTyr peptide.

By Kd is commonly meant the constant that tells how readily two partners part at equilibrium. Lower therefore signals tighter binding. A word on the EC50: it is the concentration at which the effect is half-maximal.

Chain of GST-Src SH2 [GST: P08515] (P08515 whole entry): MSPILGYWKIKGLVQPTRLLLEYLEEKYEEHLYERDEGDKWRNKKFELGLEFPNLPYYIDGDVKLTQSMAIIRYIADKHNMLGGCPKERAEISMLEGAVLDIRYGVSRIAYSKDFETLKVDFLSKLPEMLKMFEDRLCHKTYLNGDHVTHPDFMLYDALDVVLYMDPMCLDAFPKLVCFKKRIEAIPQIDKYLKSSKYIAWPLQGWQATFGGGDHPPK

On to FITC-pTyrEEI (peptide), for which, in assay [1], the Kd turned out to be 280 nM.

In assay [2], pTyrEEI (peptide) came in with a 50% effective concentration (EC50) of 740 nM.

Take pnYEEI (peptide): the Decrease in binding affinity with SH2 (against pTyr) in assay [3] is 17 fold. In addition, in assay [2], the EC50 is 12800 nM.

For the origin of these results see patent publication US20250270289A1, “SEQUENCE-DEFINED POLYMERS WITH ONE OR MORE AZIDES, METHODS OF MAKING, AND METHODS OF USE THEREOF” (Yale University, priority 2021, published 2025).
